assay: protease stability score; higher = more stable; yeast display proteolysis, trypsin and chymotrypsin;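 further: relative to predicted unfolded state with 0 unfolded-like and 1 meaning tenfold more protease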

Row | Sequence | protease stability score
1 | SHLEEETMHIAEIFIKNELTGDERKLVELLDPNTRLHIDIGDKHIDVHGMENITKLLREIWKRLGADHVHIKDVRVQGDKADIITRIDVNGREIHSRIHILVINGKIESLKLHVE | 1.33
2 | DEDEEIAVKSYKKIVEDFFTGDEDSARRNADPDVLLRVGDKELHGWKHMTSWVHELRIHRIDIREIRVIGDKMFLHGEVDSEIDGKRLEFHLKLRMEKVDGRWIIRKIEIK | 1.49
3 | DEHEEASKLAIELLLTLERTGDEDKLRKLVDPNVRYDINGRELHGWEFMHRMIRHLRTEHVTIERVHVQGDWIHIDRILNVNVNGKEINIRTKINAQKINGVWIEREVEIQ | 1.09
4 | DEDERNLREFLRRMVEHWLTGNEESLKRLIDPEVRIHIGDKDLVGREEEERYHRQMRSDRLHVELDSVDIVGDKLQLHITIHIDSIVNGRRLDIKYRHTLHVRKINGRWILEESEIK | 0.814
5 | HDDHESADKFIREEIEYQRTGDWHRFEELLDPDVRLEQGNYHAHGREEVSTIFLMHLTRVKNMRMEVTRMEIINGRLSLHLKLDFNGREFHFSTIVQKVNGKWIIKAEHFI | 0.507
6 | DSHYHLFIYNMELLSTLLKTGDEHRNTEMFDPHVRIVVGEKEIHGREDVEKYLREIRIEEMRFHLRRLDVQGEKVTVEGELRIRFWIGDKEHEHNEDARIHLLKINGRWRLKEIESK | 2.43
7 | DELHEFLERVAERLVRMEHTGNEEELKKLMDPHVRLVVGDKTSVGREELLRFLEELKRKIGWTNFTVHVRRIEVQGDFFNVDMELHVNGRSLHVLIRVQIINGKLESIHWIWI | 2.03
8 | SETEEWQHQILEILERIQKTGDPHEFMHNADPHVRLHVNGRDFHGMELFKEMFEKFGAKVSHLRDVDIQGDKIHVDGELEFNGVTHKSHVDARKVDGRWVLTRYTIK | 0.415
9 | SEEEDHIRRAIERFSKDQETGDEDSIRELLDPHVRMHVDGQELIGRDLILKFWSELRVHHWEMHSVRVVGDYVDFDVTLDMRVGDKSHRIKATLIILKIDGRWILKLVIID | 1.19
10 | EEAEQESKNFSEVVHRSLETGDEDNLMNNADPHVRSRIHVGDKRITSHGREVMELILERFKHARVVPTDIEVINGVAIIHMTMEYGDKELRIHLIFFKIDGKWILTHIIIRVD | 0.056
11 | TDDEEIWKIAIKMLRSAMHTGDEDTIKHLLDPNVRIEINGREIIGREIYAKHLREIRVDVERWEDHHIEVQGEFMHVKGRVVLTEEINGQEVREDVKLHVLVLKIDGQWRITSLYFR | 0.754
12 | DEDEERMEHMIHLLDHALETGDWRTISKLIDPHVRLEVNGVNFVGREEIITFLLEIRMSSRIHIKDFRVVGDKLEMEIDSHIDLHYNGKTYQTRVESRLIIKKVNGRWILQESSER | 1.15
13 | SDEHDVVRELLEIMEIVWRTGDWREMTKMFDPNTRISYGDKYIVGWEALEVLLKRIDHHTMHEIHFRDVHVQGDKIRLDGEVRFERHVGDYREHVTVDVHIHARKIDGRWINTNIRTH | 0.743
14 | NEEKEEAERFTRQFLHSWRTGDEESLKRMADPNVRIIVGDYEKVGWEAIEETIKRLGIDHLEYHSVHVHVIGDKVNIHSDVRIQVNGQERDVQIHVHMRKINGRWFVESIRLNFH | 1.26
15 | SEDERDARHYLKEFEHAIETGDEHRLDELLDPNVKIDIDGVEHHGREWFRTLEHHIRVHSRVELKHIEVYGNFIVMDGHLHREIRINGRRIETHSRTIIIMRKVNGRWLVSELRFR | 1.52
16 | HEEEKLARTFSEVVERSLYTGDEDSLKRLMDPHVRMNVNGVRHIGMELAKEWLHRYIRQLGIDHSTIRHSHDEIQGEKVIVRLHGELVYNGVSREVELIIHVNKVNGVWTISELLVILK | 1.25
17 | SEEEKRADEFNRRWVHKMQTGDEESLHELIDPNAKLHFEGHDEVGMQRVSHTIVKFFLEIRVHYIHITDARVYDGRLELDTRVDGEFNGKRDTLKIELYVLKVNGVWLLKELRVS | 1
18 | TEDLHQYHEFLEEMIRWLRTGDWEAKHRNADPNVRLDFNGVDFHGMEIVAKIEMELRRRVDHIELEVKRSEIVNGRVHIDQVYHIEYNGRSYEVKSELIVKKVNGKWLIKEERVR | 0.322
19 | DEDKKIWKHWLEIFVRWFLTGDFDKLRENADPNARSDINGKELHGMETFVEAMRELGFKHVEIHDVHIQGNKVHLDTRVLFDGQHHTTHLHVHIVNGRLKEISIEIR | 1.26
20 | SEEEDDLQHYIDVLRHILHTGDWQKFSEMADPTVKLKINGVEYHGREKLAHMLKKHLEELGYTRIEVELRSITIQGEFIKSDIKLDVNGQELRVRVDFYKINGKWSMTFLQIE | 1.45
21 | EERERLAEELARIWLEVLETGDWKMLHDLADPNVRNVVGDKEQHGREEMSRFYTEWHEHIRIHRIEIESIDIQGNKIQIHGRIDMEINGKRRDQRLEIIIIVINGRIKRLEVRLH | 0.948
22 | DEEDRELERIYQELFEAWLTGNEDDLKKLADPNVRVDINGKDKVGREQEIEDLRRVKNMKVKLEDSDIIGDWITVDVVINFNGREIRMELEWRVINGKVKRVIVRYR | 1.2
23 | DEREEHAEEIFRELIHWMETGDEKKMRRYFDPHARLEVGDKEFIGREKISEWMVELRLKDHKERHFDVVNGVAEIHGVMDGIIDGRRHRTEVIIDINIINGKFHRIRIIVK | 1.21
24 | DEKHELNEKALSEFLKIVHTGDERLVREMMDPHVRVHINGRDHHGMDDAVELMKFIKNMTVILTDKKIQGDKLEVHGIWIYNGVREETEIISEKVDGRWVIREVRHD | 1.07
25 | DEEEEKSKRMLEIIIHAVMTGDFQHLLDNMDPHVKLDIDGVDLHGRESAEEFVKKVKNLTLHDWKLDHWHIQGDKVTMHVTIDGLYNGKKERTRVIIIALKINGQWHIKSMKID | 1.9

Row | Sequence | protease stability score
26 | SEDEEESRHAYQKLVRDLETGDEKKTEDNVDPNVRLEQGDKTLHGRERFVHWYSRLGAKHFHIHSFEAQGDKIHIDGTINVNGVTHRVEYISLKVNGRWLMHQVIIR | 0.662
27 | DEDHEQAKRVFDELVDNTRTGDFDNLRKLMDPHARLVINGRNFIGREEVIRVMHEIRIETHRIRSIRIINGQARIDVESEVDINGRTEETRVEIIVFKVDGRWYLHTLRIV | 1.99
28 | DEDHEAVERLLEHLQTAFLTGDWRREDELVDPNARVHFNGQERHGRHVLRYVNEFLEDRFKNLQIRHSTVHDSHVQGDKIILFTSYELRVDGREFSLKTKIIFHKVDGRWLVTHLYIE | 0.823
29 | DEETEEIELAFHFFQHAYETGNEEVLMELADPDVKIDVNGRKLHGRERVWKFLIHHWHHLGIKHIHMDRIEIYGNKVVVDGEIKYGDKSDETIMYVVKVDGRWKLEMIEVK | 1.47
30 | SEEHRDVAKVIHDWFHDTITGDFKTLERLMDPNARLRINGQEFHGREEVRKFLERLLRHWREHSVEIEDINVQGDKASVHSHIDGEIDGRRIRMRSIFIILKFDGQWLMHSVIVE | 2.68
31 | SEDEEQAERFARELIEVLRTGNEELLTHLLDPNTMLRVNGVEHHGREAYLHYTREMRYHHIDIEHFDVQGDKLYLHNRMDGQVDGRRVDVRIRIQVEKVNGRWKLRQERHQ | 0.524
32 | SEEDEIAKHVWERFFKNVLTGDEDTLLRLLDPDTRLIVIIGDKEIHLHGREELSKFLSELRIHHLEITDWVSQGEKARTHVRSDGTVDGKRHHTEMELILIVINGRIKEIRILVR | 1.07
33 | DEEKEFAEIYLRRLEELYNTGDEEIEHDLLDPHVRINIGNKHIHGREQYIEHWRKLLIILGIERFTIHVRIKDVRIQGEFAHLDGRLELRVGDKRRTLDVELIILKVNGRWVNKHIHFL | 0.888
34 | DELERILKEQAETIMHFWRTGDEESFNHMADPDYWLRVGDKNVHGREKASEYLRHWLEHIRIHDVKIRDKRVFNGRVFIDMREDGNVDGKRTTRTLHVIIVSIDGKITMVEIRLE | 0.996
35 | DEEEHEEKRLLEMHLHYLATGDEENLKKLLDPNVKLVVNGREIHGRERIIEFIRRLIEMWGVDRIDSRIRHVTSQGDKIRLEGEWIVGEKVIDTRLLAVKVDGRWVEETLILK | 2.13
36 | SDEERLLHELLHRVLHKRVTGDEESIWREIDPRARIDVNGRDVHGRDHFFEFIVKWMMHYGINHLEIKNQREIDGRIDVDFHEEVGDKRFHVRIIFHKINGRWHLTQEVFT | 1.19
37 | SEDDEILERMLRELIHLIRTGDEDSIREMADPNVRLIINGKEFHGMEEYIKTWHRILERFDHLRHVELHDEHRFDGRVRIWGTLNHRIGDKHTRFTVHIVALKFNGRWILKSEEIT | 1.36
38 | DETTEHVRKLTELLLRSWVTGDEETDEKMADPNVRIIFEGREVHGMHWFSRVVKELRIEHVQIHDERFKVFEGRAEMRVDTHLRGTQGNYHDERKVRVEIHIIKVNGRWHLETIRVSVH | 1.21
39 | SEDEEAVHKMLEMWIKHINTGDERHLHKLADPNYRVEQGDKELHGRHAYEYVFHQFDHWKEIRIEEVKTYDGRVKIKGREVYHINGQEIESEVRIITTKVDGQWHLKSILFK | 0.525
40 | SEDEKLVHHAANLILEALWTGDEDTLREMVDPNVRTHINGREFHGWEESIRIILHHLNRFKNVRWHLHDQRVYGEKSHNDVRTNVDGVTLEVILILIVVDGRIRSISIEIR | 2.68
41 | DDDRRSLEDWIKISIESMKTGDEDEFEHLADPNPRMVVGDKHLVGRERAVHVFREWRVKHMTVKDHPIIDGRIEMDTRVTVHFNGRDIELELRIIIHKVNGKWLVEEIIIK | 0.381
42 | DEEEKATHEAIEEIIETLRTGDEHIMRELMDPHVKVVQGDKEHHGRESFIKWMRLWFERAGVDQIDMRIKDHDSQGEKITLDGSLYVNGVEIDTHIISHKINGRWLNRSVIIQ | 1.22
43 | DEIEKESERVMEKYFEDFITGDWETMWRQVDPHVKFRIGDKHFHGREQATRVYKEFLDELGVKVRRIHDFEFTLFDGRAYVHLDSTLRVNGRDHRLHITIIVEKINGRWRLHEFELRLH | 0.367
44 | DEEEELNREALKEFHDDMKTGDERHILENLDPNTRIQFNGRDLHGRENAERFIRELIQKYGATVFNMKRVEVQGDWLHIDGELVIGDKKHRIHIIAVKINGRWTDTELRIK | 1.48
45 | DKDEDDERKAIDTLVDVLRTGDEHTLQRLLDPNVQLHIGDKRHHGRDEVIRVLHELHRRLGVTRVEVEIQEYHMVDGQIDLRVHLKYGDKTIESEFVLYKVNGRWFVKSLHFK | 2.24
46 | DEEEKHLKKLKDMEWKLFETGNEDEIAKLADPNTRTEIDFNGVRIILHGRHVFAKYLTRWWRSLGIDHIRLEEMDIQGDYVTIRGKEDYNGKEKRVTIIIVIVDGRLKEIHVDVR | 0.967
47 | DQKKELIKKVHEHLFEDLITGDEKKLLSLADPNMRSDINGREIHGMEETSRILLELNRHWGVDRVEVHEHDMKIQGDKAIIHGTLKFNGVETTVELVILKINGVWLLKEVHFR | 0.76
48 | SEDEQLRYELAELFFHLISTGDEETIRHYFDPHVLVMIFVNGRNIENHGWEEMTRSLRELRIKDSRLKRVDVYGDYARMDIRVDGEINGVRRDTEVEIRIKWVNGRWKSVNIHIH | 2.14
49 | DDHEHFHREIWRTWLELQLTGDPHRLERLADPHVRFVYGDKVFHGREKMSEHFERENRELGIDHVEVRIKDSRFIDGRVHHDSELIIRVDGRTYKHDVKVIIDKVDGRWNIQKVEIR | 1.07
50 | HEDDRIVQEHWKRLSEAWLTGDEERAKKNADPNTREVINGKELHGREEVTRLYREIRRSIEHVEIRDSRIQGDKLLIDVNMVISVIIGDKEFRIEVRVNVIMIKFDGVWHLETVHFH | 0.187
